The labels stand for the following.
B1: TPR 5TU (parent)
chain: GGAUCUUCUCGAUCUAACAAAAAAGACAAAUCUGCCACAAAGCUUGAGAGCAUCUUCGGAUGCAGAGGCGGCAGCCUUCGGUGGCGCGAUAGCGCCAACGUUCUCAACUAUGACACGCAAAACGCGUGCUCCGUUGAAUGGAGUUUAUCAUG

Fewer inactive variants are shown than the library holds.

In this data set the parent is B1. Kind of data set: polymerase ribozyme fitness, log enrichment relative to wild type (log ratio); higher = more active; in vitro selection for triplet polymerase activity. The method, boiled down:
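Streptavidin-bead capture of gel-excised extended constructs, followed by RT-PCR, closed a single triplicate in vitro selection round. That round began by annealing PCR-built, transcribed mutant libraries of each subunit of a heterodimeric triplet polymerase ribozyme with a biotinylated primer, the partner subunit and triplets, then incubating them frozen at −7 °C. After Illumina sequencing of inputs and outputs, genotypes needed ≥10 input reads and ≥1 read per output. Fitness is the base-2 logarithm of genotype enrichment over wild-type enrichment, using inverse-variance-weighted replicate averages.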
Consider GGAUCUUCUCGAUCUAACAAAGAAGACAAAUCUGCCACAAAGCUUGAGAGCAUCUUCGGAUGCAGAGGCGGCAGCCUUCGGUGGCGUGAUAGCGCCAACGUUCUCAACUAUGACACGCAAAACGCGUGCUCCGUUGAAUGGAGUUUAUCAUG, for which the “polymerase ribozyme fitness (log ratio)” value is -0.258. Under GGAUCUUCUCGAUCUAACAAACAAGACAAAUCUGCCACAAAGCUUGAGAGCAUCUUCGGAUGCAGAGGCGGCAGCCUUCGAUGGCGCGAUAGCGCCAACGUUCUCAACUAUGACACGCAAAACGCGUGCUCCGUUGAAUGGAGUUUAUCAUG stands -0.137; under GGAUCUUCUCGAUCUAACAAAGAAGACAAAUCUGCCACAAAGCUUGACAGCAUCUUCGAAUGCAGAGGCGGCAGCCUUCGGUAGCGCGAUAGCGCCAACGUUCUCAACUAUGACACGCAAAACGCGUGCUCCGUUGAAUGGAGUUUAUCAUG, -4.06; under GGAUCUUCUCGAUCUAACAAAGAAGACAAAUCUGCCACAAGGCUUGAGAGAAUCUUCGGAUGCAGAGGCGGCAGCAUUCGGUGGCGCGAUAGCUCCUACGUUCUCAACUAUGACACGCAAAACGCGUGCUCCGUUGAAUGAAGUUUAUCAUG, not above -4.2. To GGAUCUUCUCGAUCUAACAAAGAAGACAAAUCUGCCACAAAGCUUGAGAGCAUCUUCGGAUGCAGAGGCGGCAGCCUUCGGUGGAGCGAUAGCGCCAACGUUCUCAACUAUGACACGCAAAACGCGUGCUCCGUUGAAUGGAGUUUAUCAUG belongs -1.12. Under GGAUCUUCUCGAUCUAACAAAGAAGACAAAUCUGCCACAAAGCUUGAGAGCAUCUUCGGAUGCAGAGGCGGCAGCCUUCGGUGGAGCGAUAGCGCCAACGUUCUCAACUAUGACACGCAAAACGCGUGCUCCGUUGAAUGGACUUUAUCAUG stands -2.92; under GGAUCUUCUCGAUCUAACAAAGAAGACAAAUCUGCCACAAAGCUUGAAAGCAUCUUCGGAUCCAGAGGCGGCAGCCUUCGGUGGCGCGAUAGCACCAACGUUCUCAACUAUGACAUGCAAAACGCGUGCUCCGUUGAAUGGAGUUUAUCAUG, not above -4.2. As to GGAUCUUCUCGAUCUAACAAAGAAGACAAAUCUGCCACAAAGCUUGAGAGCAUCUUCGGAUGCAGAGGCGGCAGCCUUCGGUCGCGCGAUAGCGCCAACGUUCUCAACUAUGACACGCAAAACGCGUGCUCCGUUGAAUGGAGUUUAUCAUG, the “polymerase ribozyme fitness (log ratio)” value is -0.878. To GGAUCUUCUCGAUCUAACAAAGAAGACAAAUCUGCCACAAAGCUUGAGAGCAUCUUCGGAUGCAGAGGCGGCAGCCUUCGGUGGCGCGAUAGCGCCAACGUUCUCAACUAUGACACGCAAAAAGCGUGCUCCGUUGAAUGGAGUUUUUCAUG belongs 1.6. Under GGAUCUUCUCGAUCUAACAAAGAAGACAAAUCUGACACAAAGCUUGAGAGCAUCUUCGGAUGCAGAGGCGGCAGCCUUCGGUGGCGCGAUAGCGCCAACGUUCUCACCUAUGACACGCAAAACGCGUGCUCCGUUGAAUGGAGUUUAUCAUG stands not above -4.2; under GGAUCUUCUCGAUCUAACAAAGCAGACAAAUCUGCCACAAAGCUUGAGAGCAUCUUCGGAUGCAGAGGCGGCAGCCUUCGGUAGCGCGAUAGCGCCAACGUUCUCAACUAUGACACGCAAAACGCGUGCUCCGUUGAAUGGAGUUUAUCAUG, not above -4.2. Under GGAUCUUCUCGAUCUAACAAAGAAGACAAAUCUCCCACAAAGCUUGAGAGCAUCUUCGGAUGCAGAGGCGGCAGCCUUCGGUGGCGCGAUAGCGUCAACGUUCUCAACUAUGACACGCAAAACGCGUGCUCCGUUGAGUGGAGUUUAUCAUG stands not above -4.2. Consider GGAUCUUCUCGAUCUAACAAAGAAGACAAAUCUGCCACAAAGCUUGAGAGCAUCUUCGGAUGCAGAGGCGGCAGCCUUCGGUGGCGCGAUAGCGCCAACGUUCUCAACUAUGACACGCAAAACGCGUGCUCCGUUGAAUGGAGUUUAUCAUG, for which the “polymerase ribozyme fitness (log ratio)” value was 0.56. Turning to GGAUCUUCUCGAUCUAACAAAGAAGACAAAUCUGCCACAAAGCUUGAGAGCAUUUUCGGAUGCAGAGGCGGCAGCCUUCGGUGGUGCGAUAGCGCCAACGUUUUCAACUAUGACACGCAAAACGCGUGCUCUGUUGAAUGGAGUUUCUCAUG, the “polymerase ribozyme fitness (log ratio)” value was -3.75. Under GGAUCUUCUCGAUCUAACAAAGAAGACAAAUGUGCCACACAGCUUGAGAGCAUCUUCGGAUGCAGAGGCGGCAGCCUUCGGUGACGCGAUAGCGCCAACGUUCUCAACUAUGACACGCAAAACGCGUGCUCCGUUGAAUGGAGUUUAUCAUG stands -4.13. Under GGAUCUUCUCGAUCUAACAAACAAGACAAAUCUGCCACAAAGCUUGAGAGCAUCUUCGGAUGCAGAGGCGCCAGCCUUUGGUGGCGCGAUAGCGGCAACGUUCUCAACUAUGACACGCAAAACGCGUGCUCCGUUGAAUGGAACUUAUCAUG stands not above -4.2; under GGAUCUUCUCGAUCUAACAAACAAGACAAAUCUGCCACAAAGCUUGAGAGCAUCUUCGGAUGCAGAGGCGGCAGCCUUCGGUGGCACGAUAGCGCCAACGUUCUCAACUAUGACACGCAAAACGCGUGCUCCGUUGAAUGGAGUUUAUCAUG, -1.57. Under GGAUCUUCUCGAUCUAACAAAGAAGACAAAUCUGCCACAAAGCUUGAGAGCAUCUUCGGAUGCAGAGGCGGCAGCCUUCAGUGGCACGAUAGAGCCAACGUUCUCAACUAUGACACGCAAAACGCGUGCUCCGUUGAAUGGAGUUUAUCAUG stands -4.2; under GGAUCUUCUCGAUCUAACAAAGAAGACAAAUCUGCCACAAAGCUUGAGAGCAUCUUCGCAUGCAGAGGCGGCAGGCUUCGGUGGCGCGAUAGCGCCAACGUUCUCAAGUAUGACACGCAAAACGCGUGCUCCGUUGAGUGGAGUUUAUCAUG, not above -4.2. Take GGAUCUUCUCGAUCUAACAAAGAAGACAAAUCUGCCACAAAGCUUGAGAGCAUCUUCGGAUGCAGAGGCGGCUGCCUUCGGUGGCGUGAUAGCGCCAACGUUCUCAACUAUGACACGCAAAACGCGUGCUCCGUUGAAUGGAGUUUAUCAUG: the “polymerase ribozyme fitness (log ratio)” value is -3.05. Under GGAUCUUCUCGAUCUAACAAACAAGACAAAUCUGCCACAAAGCUUGAGAGCAUCUUCGGAUGCAGAGGCCGCAGCCUUCGGUGGCGCGAUAGCGCCAACGUUCUCAACUAUGACACGCAAAACGCGUGCUCCGUUGAAUGGAGUUUAUCAUG stands -4; under GGAUCUUCUCGAUCUAACAAAGAAGACAAAUCUGCCCCAAAGCUUGAGACCAUCUUCGGAUGCGCAGGCGGCAGCCUUCGGUGGCGCAAUAGCGCCAACGUUCUCAACUGUGACACGCAAAACGCGUGCUCCGUUGAAUGGAGUUUAUCAUG, not above -4.2; under GGAUCUUCUCGAUCUAACAAAGAAGACAAAUCUGCCACAAAGCUUGCGAGCAUCAUCGGAAGCAGAGGCGGCAGCCUUCGGUGGCGCGAUACCGCCAACGUUCUCAACUAUGACACGCAAAACGCGUGCUCCGUUGAAUGGUGUUUAUCAUG, not above -4.2. To GGAUCUUCUCGAUCUAACAAAGAAGACAAAUCUGCCACAAAGCUUGAGAGCAUCUUCGCAUCUAGAGGCGGCAGCCUUCGGUGGCGGGUUAGCGCCAACGUUCUCAACUAUGACACGCACAACGCGUGCUCCGUUGAAUGGACUUUAUCAUG belongs -3.94.

On to GGAUCUUCUCGAUCUAACAAAGAAUACAAAUCUGCCAAAAAGCUUGAGAGCGUCUUCGGAUGCAGAGGCGGCAGCCUUCGGUGGCGCGAUAGCGCUAACGUUCUCAACUAUGACACGCAAAACGCGUGCUCCGUUGAAUGGAGUUUAUCAUG, for which the “polymerase ribozyme fitness (log ratio)” value is -2.43. For the variant GGAUCUUCUCGAUCUAACAAAGAAGACAAAUCUGCCAGAAAGCUUGAGAGCAUCUUCGGAUGCAGAGGCGGCAGCCUUCGGUGGCGCGAUAGCGCUAACGUUCUCAACUUAGACACGCAAAACGCGUGCUCCGUUGAAUGGAGUUUAUCAUG, the “polymerase ribozyme fitness (log ratio)” value is not above -4.2. Under GGAUCUUCUCGAUCUAACAAAGAAGACAAAUCUGCCACAAAGCUUGAGAGCAUCUUCGGAUGCAGAGGCGGCAGCCUUCGGUGGCGCGCUAGCGCCAACGUUCUCAACUAUGACACGCAAAACGCGUGCUCCGUUGAAUGGAGUUUAUCAUG stands -0.303. As for GGAUCUUCUCGAUCUAACAAACAAGACAAAUCUGCCACAAAGCUUGAGAGCAUCUUCGGAUGCAGAGGCGGCAGCCUUCGGUUGCGCGAUAGCGCCAACGUUCUCAACUAUGACGCGCAAAACGCGUGCUCCGUUGAAUGGAGUUUAUCAUG, the “polymerase ribozyme fitness (log ratio)” value is -1.96. To GGAUCUUCUCGAUCUAACAAACAAGACAAAUCUGCCACAAAGCUUGAGAGCAUCUUCGGAUGCAGAGGCGGCAGCCUUCGGUGGCACGAUAGCGCCAACGAUCUCAACUAUGACACGCAAAACGCGUGCUCCGUUGAAUGAGGUUUAUCAUG belongs not above -4.2; to GGAUCUUCUCGAUCUAACAAAGAAGACAUAUCUGCCACAAAGCUUGAGAGCAUCUUCGGAUGCAGAGGCGGCAGCCUUCGGUGGCGCAAUAGCGCCAACGUUCUCAACUAUGACACUCAAAACGCGUGCUCCGUUGAAUAGAGUUUAUCAUG, not above -4.2; to GGAUCUUCUCGAUCUAACAAAGAAGACAAAUCUGCCACAAAGCUUGAGAGCAUCUUCGGAUGCAGAGGCGGCAGCCUUCGGUGGUGCGAUAGCGCCAACGUUCUCAACUAUGAAACGCAAAACGCGUGCUCCGUUGAAGGGAGUUUAUCAUG, -3.14. To GGAUCUUCUCGAUCUAACAAAGAAGACAAAUCUGCCACAAAGCUUGAGAGCAUCUUCGGAUGCAGAGGCGGCAGCCUUCGGUGGCGCGAUAGCGUCAACGUUCUCAACUAUGACACGCGAAACGCGUGCUCCGUUGAAUGGAGUUUAUCAUG belongs 0.832; to GGAUCUUCUCGAUCUAACAAAGAAGACAAUUCUGCCACAAAGCUUGAGAGCAUCUUCGGAUGCACAGGCGGCAGCCUUCGGUGGCGCGAUAGCGCCAACGUUCUCAACUAUGACACGCAAAACGCGUGCUCCGUUAAAUGGAGUUUAUCAUG, not above -4.2. Under GGAUCUUCUCGAUCUAACAAACAAGACAAAUCUGCCACAAAGCUUGAGAGCAUCUUCGGAUGCAGAGGCGGCAGCCUUCGGUGUCGCGAUUGCGCCAACGUUCUCACCUAUGACACGCAAAACGCGUGCUCCGUUCAAUGGAGUUUAUCAUG stands not above -4.2; under GGAUCUUCUCGAUCUAACAAAGAAGACAAAUCUGGCACAAAGCCUGAGAGCAUCUUCGGAUGCAGAGGCGGCAGCCGUCGGUGGCGAGAUAGGGCCAACGUUCUCAACUAGGACACGCAAAACGCGUGCUCCGUUGAAUGGAGUUUAUCAUG, not above -4.2; under GGAUCUUCUCGAUCUAACAAAGAAGACAAAUUUGCCACAAAGCUUGAGAGCAUCUUCGGAUGCAGAGGCGGCAGCCUUCGGUGGCGCGAUAGCGCCAACGUUGUCAACUAUGACACGCAAAACGCGUGCUCCGUUGAAUGGAGUUUGUCAUA, not above -4.2. For the variant GGAUCUUCUCGAUCUAACAAAGAAGACAAAUGGGCCACAAAGCUUGAGAGCAUCUUCGGAUGCAGAGGCGGCAGCCUUCGGUGGCGCGAUAGCACCAACGUUCUCAACUCUGACAGGCAAAACGCGUGCUCCGUUGAAUGGAGUUUAUCAUG, the “polymerase ribozyme fitness (log ratio)” value was -4.15. GGAUCUUCUCGAUCUAACAAAGAAGACAAAUCUGCCACAGACCUUGAGAGCAUCUUCGGAUGCAGAGGCGGCAGCCUUAGGUGGCGCGAUAGCCCCAACGUUCUCAACUAUGACACGCAAAACGCGUGCUCCGUUGAAUGGAGUUUAUCAUG: the “polymerase ribozyme fitness (log ratio)” value is not above -4.2.

The values above are taken from the RNAGym collection of RNA variant scans (doi:10.1073/pnas.2313332121).
